Laboratory results: patent US20240132578A1

Columns and labels:
Experiment in all cases: cell-based or functional assay
[1] = target: HIV-1 93IN905 envelope glycoprotein (Env) on pseudovirus (HIV-1)
[2] = target: HIV-1 JR-CSF Env V292A (HIV-1 (isolate JR-CSF, clade B)) (UniProt P20871)
[3] = target: HIV-1 CMU02 envelope glycoprotein (Env) on pseudovirus (HIV-1)
[4] = target: HIV-1 JRCSF envelope glycoprotein (Env) on pseudovirus (HIV-1) (UniProt P20871)
[5] = target: HIV-1 92UG005 envelope glycoprotein (Env) on pseudovirus (HIV-1)
[6] = target: HIV-1 93UG077 envelope glycoprotein (Env) on pseudovirus (HIV-1)
[7] = target: HIV-1 JR-CSF Env T202A (HIV-1 (isolate JR-CSF)) (UniProt P20871)
[8] = target: HIV-1 NL43 envelope glycoprotein (Env) on pseudovirus (HIV-1)
[9] = target: HIV-1 MGRM-D-001 envelope glycoprotein (Env) on pseudovirus (HIV-1)
[10] = target: HIV-1 APV17 envelope glycoprotein (Env) on pseudovirus (HIV-1)
[11] = target: HIV-1 JR-CSF Env P299A (HIV-1 (isolate JR-CSF, clade B)) (UniProt P20871)
[12] = target: HIV-1 JR-CSF Env H330A (HIV-1 isolate JR-CSF) (UniProt P20871)
[13] = target: HIV-1 JR-CSF Env T388A (HIV-1 isolate JR-CSF) (UniProt P20871)
[14] = target: HIV-1 92UG024 envelope glycoprotein (Env) on pseudovirus (HIV-1)
[15] = target: HIV-1 94UG103 envelope glycoprotein (Env) on pseudovirus (HIV-1)
[16] = target: HIV-1 MGRM-C-027 envelope glycoprotein (Env) on pseudovirus (HIV-1)
[17] = target: HIV-1 APV6 envelope glycoprotein (Env) on pseudovirus (HIV-1)
[18] = target: HIV-1 JR-CSF Env N295A (HIV-1 (isolate JR-CSF, clade B)) (UniProt P20871)
[19] = target: HIV-1 92TH021 envelope glycoprotein (Env) on pseudovirus (HIV-1)
[20] = target: HIV-1 MGRM-AG-005 envelope glycoprotein (Env) on pseudovirus (HIV-1)
HIV-1 JRFL Env (HIV-1) = target: HIV-1 JRFL Env (HIV-1)
HIV-1 APV13 Env (HIV-1) = target: HIV-1 APV13 Env (HIV-1)
HIV-1 APV17 Env (HIV-1) = target: HIV-1 APV17 Env (HIV-1)
[21] = target: HIV-1 envelope glycoprotein (Env) of isolate JR-FL, on pseudovirus (HIV-1)
[22] = target: HIV-1 JR-CSF Env D325A (HIV-1 isolate JR-CSF) (UniProt P20871)
[23] = target: HIV-1 MGRM-D-001 Env (HIV-1)
[24] = target: HIV-1 Env of isolate MGRM-F1-014 (pseudovirus) (HIV-1)
[25] = target: HIV-1 93UG077 Env (HIV-1)
[26] = target: HIV-1 JR-CSF Env K305A (HIV-1 (isolate JR-CSF, clade B)) (UniProt P20871)
[27] = target: HIV-1 JR-CSF Env I323A (HIV-1 (isolate JR-CSF, clade B)) (UniProt P20871)

Question: Which Neutralization IC80 [1] does the source give for 5343_B08 (PGT-135) (antibody) here?
Answer: 0.0648 µg/mL

Question: And the Neutralization IC90 [1]?
Answer: 0.136 µg/mL

Question: What about the Neutralization IC95 [1] of the same substance?
Answer: 0.268 µg/mL

Question: And the neutralization IC50 [1]?
Answer: 0.0183 µg/mL

Question: And the Fold IC50 increase relative to wild-type [2]?
Answer: 2 fold

Question: What about the Neutralization IC80 [3] of the same substance?
Answer: > 10 µg/mL

Question: And the Neutralization IC90 [3]?
Answer: > 10 µg/mL

Question: What about the Neutralization IC95 [3] of the same substance?
Answer: > 10 µg/mL

Question: What about the neutralization IC50 [3] of the same substance?
Answer: > 10 µg/mL

Question: And the Neutralization IC80 [4]?
Answer: 0.503 µg/mL

Question: What about the Neutralization IC90 [4] of the same substance?
Answer: 1.47 µg/mL

Question: What about the Neutralization IC95 [4] of the same substance?
Answer: 8.3 µg/mL

Question: What about the neutralization IC50 [4] of the same substance?
Answer: 0.113 µg/mL

Question: What about the Neutralization IC80 [5] of the same substance?
Answer: > 10 µg/mL

Question: And the Neutralization IC90 [5]?
Answer: > 10 µg/mL

Question: What about the Neutralization IC95 [5] of the same substance?
Answer: > 10 µg/mL

Question: What about the neutralization IC50 [5] of the same substance?
Answer: > 10 µg/mL

Question: What about the Neutralization IC80 [6] of the same substance?
Answer: > 10 µg/mL

Question: What about the Neutralization IC90 [6] of the same substance?
Answer: > 10 µg/mL

Question: What about the Neutralization IC95 [6] of the same substance?
Answer: > 10 µg/mL

Question: What about the neutralization IC50 [6] of the same substance?
Answer: > 10 µg/mL

Question: And the Fold IC50 increase relative to wild-type [7]?
Answer: 1.8 fold

Question: What about the Neutralization IC80 [8] of the same substance?
Answer: > 10 µg/mL

Question: And the Neutralization IC90 [8]?
Answer: > 10 µg/mL

Question: And the Neutralization IC95 [8]?
Answer: > 10 µg/mL

Question: What about the neutralization IC50 [8] of the same substance?
Answer: 6.79 µg/mL

Question: And the Neutralization IC80 [9]?
Answer: > 10 µg/mL

Question: What about the Neutralization IC90 [9] of the same substance?
Answer: > 10 µg/mL

Question: And the Neutralization IC95 [9]?
Answer: > 10 µg/mL

Question: What about the neutralization IC50 [9] of the same substance?
Answer: > 10 µg/mL

Question: What about the Neutralization IC80 [10] of the same substance?
Answer: > 10 µg/mL

Question: And the Neutralization IC90 [10]?
Answer: > 10 µg/mL

Question: What about the Neutralization IC95 [10] of the same substance?
Answer: > 10 µg/mL

Question: What about the neutralization IC50 [10] of the same substance?
Answer: > 10 µg/mL

Question: And the Fold IC50 increase relative to wild-type [11]?
Answer: 0.36 fold

Question: What about the Fold IC50 increase relative to wild-type [12] of the same substance?
Answer: > 250 fold

Question: What about the Fold IC50 increase relative to wild-type [13] of the same substance?
Answer: 0.1 fold

Question: What about the Neutralization IC80 [14] of the same substance?
Answer: 0.054 µg/mL

Question: And the Neutralization IC90 [14]?
Answer: 0.122 µg/mL

Question: And the Neutralization IC95 [14]?
Answer: 0.267 µg/mL

Question: And the neutralization IC50 [14]?
Answer: 0.0139 µg/mL

Question: And the Neutralization IC80 [15]?
Answer: > 10 µg/mL

Question: What about the Neutralization IC90 [15] of the same substance?
Answer: > 10 µg/mL

Question: What about the Neutralization IC95 [15] of the same substance?
Answer: > 10 µg/mL

Question: And the neutralization IC50 [15]?
Answer: > 10 µg/mL

Question: And the Neutralization IC80 [16]?
Answer: > 10 µg/mL

Question: What about the Neutralization IC90 [16] of the same substance?
Answer: > 10 µg/mL

Question: And the Neutralization IC95 [16]?
Answer: > 10 µg/mL

Question: And the neutralization IC50 [16]?
Answer: > 10 µg/mL

Question: And the Neutralization IC80 [17]?
Answer: > 10 µg/mL

Question: What about the Neutralization IC90 [17] of the same substance?
Answer: > 10 µg/mL

Question: And the Neutralization IC95 [17]?
Answer: > 10 µg/mL

Question: What about the neutralization IC50 [17] of the same substance?
Answer: > 10 µg/mL

Question: What about the Fold IC50 increase relative to wild-type [18] of the same substance?
Answer: > 18 fold

Question: What about the Neutralization IC80 [19] of the same substance?
Answer: > 10 µg/mL

Question: And the Neutralization IC90 [19]?
Answer: > 10 µg/mL

Question: And the Neutralization IC95 [19]?
Answer: > 10 µg/mL

Question: What about the neutralization IC50 [19] of the same substance?
Answer: > 10 µg/mL

Question: What about the Neutralization IC80 [20] of the same substance?
Answer: > 10 µg/mL

Question: What about the Neutralization IC90 [20] of the same substance?
Answer: > 10 µg/mL

Question: What about the Neutralization IC95 [20] of the same substance?
Answer: > 10 µg/mL

Question: And the neutralization IC50 [20]?
Answer: > 10 µg/mL

Question: How did the IC50, pseudovirus neutralization (HIV-1 JRFL Env (HIV-1)) turn out when 4858_P08 (PGT-123) (antibody) was run?
Answer: 0.0283 µg/mL

Question: And the Fold IC50 increase relative to wild-type [12]?
Answer: 0.3 fold

Question: What about the Fold IC50 increase relative to wild-type [13] of the same substance?
Answer: 0.2 fold

Question: And the IC50, pseudovirus neutralization (HIV-1 APV13 Env (HIV-1))?
Answer: 0.222 µg/mL

Question: What about the IC50, pseudovirus neutralization (HIV-1 APV17 Env (HIV-1)) of the same substance?
Answer: 0.18 µg/mL

Question: What about the IC50, pseudovirus neutralization [21] of the same substance?
Answer: 0.014 µg/mL

Question: What about the Fold IC50 increase relative to wild-type [22] of the same substance?
Answer: 64 fold

Question: And the IC50, pseudovirus neutralization [23]?
Answer: 0.215 µg/mL

Question: What about the IC50 (µg/mL), pseudovirus neutralization [24] of the same substance?
Answer: 0.111 µg/mL

Question: And the IC50, pseudovirus neutralization [25]?
Answer: 0.0303 µg/mL

Question: How did the Fold IC50 increase relative to wild-type [7] turn out when 5145_B14 (PGT-127) (antibody) was run?
Answer: 1.8 fold

Question: And the Fold IC50 increase relative to wild-type [12]?
Answer: 0.5 fold

Question: And the Fold IC50 increase relative to wild-type [26]?
Answer: 2.6 fold

Question: What about the Fold IC50 increase relative to wild-type [13] of the same substance?
Answer: 0.5 fold

Question: And the Fold IC50 increase relative to wild-type [27]?
Answer: 4 fold

Question: What about the IC50, pseudovirus neutralization [21] of the same substance?
Answer: 0.029 µg/mL

Question: What about the Fold IC50 increase relative to wild-type [22] of the same substance?
Answer: 0.93 fold

Question: What about the Fold IC50 increase relative to wild-type [18] of the same substance?
Answer: 2.3 fold

Question: And the IC50 (µg/mL), pseudovirus neutralization [24]?
Answer: > 50 µg/mL
